In patent publication US20180318355A1, “METHODS AND COMPOSITIONS FOR IMPROVED TISSUE REGENERATION BY SUPPRESION OF INTERFERIN-GAMMA AND TUMOR NECROSIS FACTOR-ALPHA” (Alfred E. Mann Institute for Biomedical Eng. at the …, priority 2011, published 2018):
Entries after “also recorded” stand apart in the source; their conditions may differ. Where a SMILES comes first, the peptide text is derived from it. The star is where a group is joined. Cbz = O=C(OCc1ccccc1)*; CH2F = FC*

How the values were obtained:
[1] = tested on: Fas, caspase 8, caspase 3; test: Western blot of Fas, cleaved caspase 8 and cleaved caspase 3 in BMMSCs; assay type: cell-based, mouse; conditions: for cleaved caspase 3 in IFN-γ/TNF-α-treated BMMSCs / cleaved caspase 8 in IFN-γ/TNF-α-treated BMMSCs: siRNA or inhibitor treatment before IFN-γ/TNF-α
Experimental: (§1) Western blot analysis. Total protein was extracted using M-PER mammalian protein extraction reagent (Thermo, Rockford, Ill.). Nuclear protein was obtained using NE-PER nuclear and cytoplasmic extraction reagent (Thermo). Protein was applied and separated on 4-12% NuPAGE gel (Invitrogen) and transferred to Immobilon™-P membranes (Millipore). The membranes were blocked with 5% non-fat dry milk and 0.1% tween-20 for 1 hour, followed by incubation with the primary antibodies (1:20¬1000 dilution) at 4° C. overnight. Horseradish peroxidase-conjugated IgG (Santa Cruz Biosciences; 1:10,000) was used to treat the membranes for 1 hour, and enhanced with a SuperSignal® West Pico Chemiluminescent Substrate (Thermo). The bands were detected on BIOMAX MR films (Kodak, Rochester, N.Y.). Each membrane was also stripped using a stripping buffer (Thermo) and reprobed with anti-β-actin antibody to quantify the amount of loaded protein.
(§2) SiRNAs for Fas, TNFR2, IKK, FLIP and XIAP were used to treat the BMMSCs according to the manufacture's instruction, and IFN-γ and TNF-α were added for 24 hrs. Inhibitors for internalization (Latrunculin A, 0.2 μM), pan caspase (Z-VAD (OMe)-FMK, 50 μM), caspase 8 ([…], 20 μM) and caspase 3 (Z-DEVD-FMK, 20 µM) were used to treat the BMMSCs at 4 hrs before IFN-γ and TNF-α were added. Cell apoptosis were analysis by immunofluorescence staining and FACS^Calibur (Annexin V-PE apoptosis detection kit I) and Western blot analysis for caspase 8, cleaved caspase 8, caspase 3 and cleaved caspase 3.

BMMSCs [2] = test: siRNA and inhibitors: IFN-γ/TNF-α-induced BMMSC death; assay type: cell-based, mouse; conditions: siRNA or inhibitor treatment before IFN-γ/TNF-α, toluidine blue staining
Experimental: as §2

Fas = Fas internalization (immunocytochemical staining); assay type: cell-based, mouse; conditions: caspase inhibitor in IFN-γ/TNF-α-treated BMMSCs vs control group
Experimental: as §2
Fas internalization. P1 BMMSCs were seeded to 2-well chamber slide. IFN-γ (50 ng/ml) was added to pre-treat BMMSCs for 24 hours, and then TNF-α (20 ng/ml) was added. At the 0.5, 1, 2, 4 hours after TNF-α was added, the cells were washed by PBS twice, and fixed with 4% PFA for 15 min. After treated by Triton-X 15 min, the cells were blocked with normal serum matched to secondary antibodies, incubated with 1 μg/ml anti-Fas (Santa Cruz) antibody at room temperature for 2 hours, treated with Rhodamin-conjugated secondary antibodies (1:200, Jackson ImmunoResearch). Then the cells were incubated with ([…] (1:40; Invitrogen) at room temperature for 20 min, and were mounted by vectashield mounting medium DAPI (Vector Laboratories).

BMMSCs [3] = test: Cell apoptosis and cell survival assay in vitro (toluidine blue, Annexin V); conditions: for BMMSC death / viability: single cytokine, 1-200 ng/ml, three days
Experimental: Cell apoptosis and cell survival assay. 0.5×10^6 BMMSCs were seeded to 6-well culture plate and co-cultured with different doses of recombined IL-4, IL-6, IL-17A, TGF-β1, TNF-α and IFN-γ (0, 10, 20, 50, 100, 200 ng/ml) for 3 days. To measure the cell viability, the total cells were analyzed by using a cell counting kit-8 (Dojindo Molecular Technoloies, Gaithersburg, Md.) according to the manufacture's instruction. And the culture plates with cells were stained with 2% toluidine blue O and 2% paraformaldehyde (Sigma-Aldrich Corporate, St. Louis, Mo.).
For cell apoptosis analysis, the BMMSCs were stained by Annexin V-PE apoptosis detection kit I (BD Bioscience) following manufacture's protocol, and analyzed by FACS^Calibur (BD Bioscience).
IFN-γ and TNF-α synergism for apoptosis. For cell apoptosis staining, the 1×10^4 BMMSCs were seeded onto two chambers slide, IFN-γ (50 ng/ml) and TNF-α (20 ng/ml) were used to treat the BMMSCs for 24 hrs either separately or combined, Annexin V-PE apoptosis detection kit I (BD Bioscience) was used to stain the BMMSCs following manufacture's protocol, and analyzed on microscopy and FACS^Calibur (BD Bioscience). Cell viability was analyzed by using cell counting kit, and culture plates were stained with 2% toluidine blue O and 2% paraformaldehyde.
IFN-γ and TNF-α synergism for apoptosis. 0.5×10^6 BMMSCs were seeded to 6-well culture plate and co-cultured with different doses of TNF-α (0, 5, 50, 100 ng/ml) with or without IFN-γ (50 ng/ml) for I day. Then, the BMMSCs were stained by Annexin V-PE apoptosis detection kit I (BD Bioscience) following manufacture's protocol, and analyzed by FACS^Calibur (BD Bioscience).

[4] = tested on: BMMSC-mediated bone formation; test: BMMSC-mediated bone formation, subcutaneous BMMSC/HA/TCP implantation; assay type: in vivo; conditions: 200 ng cytokine in hydrogel co-implanted with BMMSCs/HA/TCP, immunocompromised mice, 8 weeks post implantation
Experimental: BMMSC-mediated bone formation. Approximately 4.0×10^6 BMMSCs were mixed with hydroxyapatite/tricalcium phosphate (HA/TCP) ceramic particles (40 mg, Zimmer Inc., Warsaw, Ind.) as a carrier and subcutaneously implanted into the dorsal surface of 8-10 weeks old immunocompromised mice or C57BL/6J mice. At eight weeks post-implantation, the implants were harvested, fixed in 4% paraformaldehyde and then decalcified with 5% EDTA (pH 7.4), followed by paraffin embedding. The 6 μm paraffin sections were stained with hematoxylin and eosin (H&E) and analyzed by an NIH Image J. Five fields were selected and newly formed mineralized tissue area in each field was calculated and shown as a percentage to total tissue area.
Cytokines in BMMSC-mediated bone formation. Approximately 4.0×10^6 of littermate-derived or autologous BMMSCs were mixed with HA/TCP ceramic powders (40 mg, Zimmer Inc.), and hydrogel (Glycosan Biosysterms, Salt Lake City, Utah) with 200 ng IFN-γ, TNF-α, IL-4, IL-6 or IL-17A were covered on the surface of the implants as a slow released system. At eight weeks post-implantation, the implants were harvested and newly formed mineralized tissue areas were analyzed. […]
BMMSC-mediated bone formation. Approximately 4.0×10^6 of littermate-derived or autologous BMMSCs were mixed with hydroxyapatite/tricalcium phosphate (HA/TCP) ceramic particles (40 mg, Zimmer Inc., Warsaw, Ind.) as a carrier and subcutaneously implanted into the dorsal surface of 8-10 weeks old immunocompromised mice or C57BL6 mice. When aspirin was used, BMMSCs were treated with 50 μg/ml aspirin for 2 days and mixed with HA/TCP particles to be subcutaneously implanted into immunocompromised mice. When IFN-γ and TNF-α were used in the subcutaneous implants, 200 ng IFN-γ, TNF-α or/and 100 μg aspirin mixed with 250 μl hydrogel as a slow released system and subcutaneously co-implanted to the dorsal surface of 8-10 weeks old immunocompromised mice.
At eight weeks post-implantation, the implants were harvested, fixed in 4% paraformaldehyde and then decalcified with 5% EDTA (pH 7.4), followed by paraffin embedding. The 6 μm paraffin sections were stained with hematoxylin and eosin (H&E) and analyzed by an NIH Image J. Five fields were selected and newly formed mineralized tissue area in each field was calculated and shown as a percentage to total tissue area.

BMMSCs [5] = test: Osteogenic differentiation assay (alizarin red staining); assay type: cell-based, mouse; conditions: for mineralized nodule formation / osteogenic differentiation of BMMSCs: alizarin red
Experimental: (§3) Osteogenic differentiation assay. BMMSCs were cultured under osteogenic culture condition media containing 2 mM […] (Sigma-Aldrich), 100 μM L-ascorbic acid 2-phosphate and 10 nM dexamethasone (Sigma-Aldrich). Different doses of IFN-γ (50, 200 ng/ml) were added to the osteogenic culture condition media every 3 days. After the osteogenic induction, the cultures were stained with alizarin red. Expressions of Runx2, ALP, and OCN were assayed by Western blot analysis.

[6] = tested on: Smad 6, Smad 7, Runx2, ALP, OCN; test: Western blot of Smad 6, Smad 7 and osteogenic genes in BMMSCs; assay type: cell-based, mouse
Experimental: as §3, §1

[7] = 200 ng/ml cytokine, osteogenic media, 14 days
[8] = Fas^−/− BMMSCs from lpr mice and Fas knock down BMMSCs by siRNA
[9] = wild type BMMSCs, IFN-γ 50 ng/ml, TNF-α 20 ng/ml, alone or co-stimulated

## C/C1=C/C(=O)O[C@@H]2C[C@@H](CC[C@H](C)/C=C\C=C\CC1)O[C@@](O)([C@@H]1CSC(=O)N1)C2 [Lnt A, Latrunculin A]
[1]
  cleaved caspase 3 in IFN-γ/TNF-α-treated BMMSCs: significantly reduced
  cleaved caspase 8 in IFN-γ/TNF-α-treated BMMSCs: significantly reduced
[1]; listed as LntA
  cleaved caspase 3 in IFN-γ/TNF-α-treated BMMSCs: inhibition of cleaved caspase 3 and 8
  cleaved caspase 8 in IFN-γ/TNF-α-treated BMMSCs: inhibition of cleaved caspase 3 and 8
BMMSCs [2]
  IFN-γ/TNF-α-induced BMMSC death: significantly reduced
BMMSCs [2]; listed as LntA
  IFN-γ/TNF-α-induced BMMSC death: partially rescue

## CC[C@H](C)[C@H](NC(=O)OCc1ccccc1)C(=O)N[C@@H](CCC(=O)OC)C(=O)N[C@H](C(=O)N[C@@H](CC(=O)OC)C(=O)CF)[C@@H](C)O [Caspase 8 inhibitor, 2-IETD-FMK] (Cbz-IE(OMe)TD(OMe)-CH2F)
[1]
  cleaved caspase 3 in IFN-γ/TNF-α-treated BMMSCs: reduce levels
  cleaved caspase 8 in IFN-γ/TNF-α-treated BMMSCs: reduce levels
Fas
  number of BMMSCs with Fas internalization: reduced number of Fas internalization
BMMSCs [2]
  IFN-γ/TNF-α-induced BMMSC death: rescuing INF-γ/TNF-α-induced cell death

## TGF-β1: recombined TGF-β1 cytokine co-cultured with BMMSCs
BMMSCs [3]; toluidine blue staining
  BMMSC death / viability: no effect

## COC(=O)C[C@H](NC(=O)[C@H](C)NC(=O)[C@@H](NC(=O)OCc1ccccc1)C(C)C)C(=O)CF [pan caspase inhibitor, Z-VAD (OMe)-FMK] (Cbz-Val-Ala-Asp(OMe)-CH2F)
Fas
  number of BMMSCs with Fas internalization: reduced number of Fas internalization

B1: IL-4: Recombinant murine IL-4 purchased from PeproTech (protein, UniProt P07750 21-140, looked up)
Interleukin-4: HIHGCDKNHLREIIGILNEVTGEGTPCTEMDVPNVLTATKNTTESELVCRASKVLRIFYLKHGKTPCLKKNSSVLMELQRLFRAFRCLDSSISCTMNESKSTSLKDFLESLKSIMQMDYS
[4]
  new bone formation in BMMSC implants: a reduction in new bone formation; also recorded: slightly inhibited
BMMSCs [5]; [7]
  mineralized nodule formation / osteogenic differentiation of BMMSCs: reduced mineralized nodule formation; also recorded: partial inhibition
BMMSCs [3]; toluidine blue staining
  BMMSC death / viability: no effect

B2: IL-6: Recombinant murine IL-6 purchased from PeproTech (protein, UniProt P08505 25-211, looked up)
Interleukin-6: FPTSQVRRGDFTEDTTPNRPVYTTSQVGGLITHVLWEIVEMRKELCNGNSDCMNNDDALAENNLKLPEIQRNDGCYQTGYNQEICLLKISSGLLEYHSYLEYMKNNLKDNKKDKARVLQRDTETLIHIFNQEVKDLHKIVLPTPISNALLTDKLESQKEWLRTKTIQFILKSLEEFLKVTLRSTRQT
[4]
  new bone formation in BMMSC implants: a reduction in new bone formation; also recorded: slightly inhibited
BMMSCs [5]; [7]
  mineralized nodule formation / osteogenic differentiation of BMMSCs: no inhibition effect
BMMSCs [3]; toluidine blue staining
  BMMSC death / viability: no effect

B3: IL-17A: Recombinant murine IL-17A purchased from PeproTech (protein, UniProt Q62386 26-158, looked up)
Interleukin-17A: AAIIPQSSACPNTEAKDFLQNVKVNLKVFNSLGAKVSSRRPSDYLNRSTSPWTLHRNEDPDRYPSVIWEAQCRHQRCVNAEGKLDHHMNSVLIQQEILVLKREPESCPFTFRVEKMLVGVGCTCVASIVRQAA
[4]
  new bone formation in BMMSC implants: no inhibitory effect
[4]; listed as IL-17
  new bone formation in BMMSC implants: no inhibitive effect
BMMSCs [5]; [7]
  mineralized nodule formation / osteogenic differentiation of BMMSCs: no inhibition effect
BMMSCs [3]; toluidine blue staining
  BMMSC death / viability: no effect

B4: IFN-γ: Recombinant murine IFN-γ purchased from PeproTech (protein, UniProt P01580 23-155, looked up)
Interferon gamma: HGTVIESLESLNNYFNSSGIDVEEKSLFLDIWRNWQKDGDMKILQSQIISFYLRLFEVLKDNQAISNNISVIESHLITTFFSNSKAKKDAFMSIAKFEVNNPQVQRQAFNELIRVVHQLLPESSLRKRKRSRC
[4]
  new bone formation in BMMSC implants: completely blockage of new bone formation; also recorded: inhibited subcutaneous bone formation; also recorded: reduced BMMSC-mediated bone formation; also recorded: significantly reduced bone formation
BMMSCs [5]; 50 ng/ml IFN-γ
  mineralized nodule formation / osteogenic differentiation of BMMSCs: no significant inhibitive effect; also recorded: no inhibitory effect
BMMSCs [5]; [7]
  mineralized nodule formation / osteogenic differentiation of BMMSCs: significantly inhibited mineralized nodule formation; also recorded: significant reduction in mineralized nodule formation; also recorded: inhibited osteogenic differentiation
BMMSCs [5]; [8]
  osteogenesis of Fas-deficient BMMSCs: failed to block osteogenesis; also recorded: failed to reduce ostoegenic differentiation
[6]; 50 ng/ml IFN-γ
  Smad 6 elevation and inhibition of osteogenic genes: not observed
[6]; 200 ng/ml IFN-γ
  Smad 6 expression: elevated; also recorded: up-regulated expression
  expression of osteogenic genes Runx2, ALP and OCN: inhibited; also recorded: down-regulated expression
[6]; [8]
  expression levels of Smad 6 and Runx2: failed to block osteogenesis and alter expression levels of Smad 6 and Runx2; also recorded: failed to reduce ostoegenic differentiation and alter expression levels of Smad 6 and Runx2
[6]; IFN-γ-treated BMMSCs
  expression level of Smad 7: not altered
[1]; [9]
  Fas expression: up-regulated expression of Fas; also recorded: activated
  activation of caspase 3 and caspase 8: no activation of caspase 3 and caspase 8; also recorded: without activating caspase 3 and caspase 8
BMMSCs [3]; IFN-γ 50 ng/ml added to TNF-α 0, 5, 50, 100 ng/ml, flow cytometric analysis
  TNF-α-induced BMMSC apoptosis: significantly enhanced TNF-α-induced BMMSC apoptosis
BMMSCs [3]; IFN-γ 50 ng/ml added to TNF-α 50-200 ng/ml, toluidine blue staining
  TNF-α-induced BMMSC apoptosis: synergistically enhanced; also recorded: significantly enhanced BMMSC apoptosis
BMMSCs [3]; IFN-γ 50 ng/ml with TNF-α 20 ng/ml, 7AAD/Annexin staining
  TNF-α-induced BMMSC apoptosis: accelerated; also recorded: enhanced
BMMSCs [3]; IFN-γ 1 to 50 ng/ml with TNF-α 50 ng/ml
  BMMSC death: dose dependent BMMSC death; also recorded: correlated with IFN-γ concentration
BMMSCs [3]; IFN-γ 100-200 ng/ml with TNF-α 50 ng/ml
  BMMSC death: no any BMMSC survived; also recorded: complete BMMSC apoptosis
BMMSCs [3]; toluidine blue staining
  BMMSC death / viability: no effect; also recorded: not able to induce BMMSC apoptosis
